Substitutions are numbered along the chain they refer to.
B1: sdAb D9 (VHH)
VHH: EVQLQASGGGLAQAGDSLRLSCAASIRTFGSYAMGWFRQAPGKEREFVAAISWSGGDTYADSAKGRFTISRDNAKNMMYLQMNSLAPEDTAVYFCAIVEAKYYISKDARDYGYWGQGTQVFVSS
notes: source: E. coli Rosetta (DE3), periplasm, purified (IMAC, size exclusion chromatography)
B2: sdAb H9-H11 (VHH)
VHH: DVQLQASGGGLVQPGGSLRLSCAASESAVRIGFMGWHRQAPGNQRERVAQISSTGLPTYADAVKGRFTISRDNTKNTVYLQMNSLNADDTAVYFCNARLYDGTSVWGQGTQVTVSS
notes: source: E. coli, periplasm, purified (IMAC, size exclusion chromatography)
B3: sdAb S222-A2 (VHH)
VHH: B2 VHH with Q13E, E26G, R30S, N43K, L56I, T58N, A62T, V78M, V105A
notes: as for B2
B4: sdAb B12 (VHH)
VHH: EVQLQASGGGLVQAGGPLRLTCAVSGPTFGSYALGWFRQAPGKEREFVAAVSWSGGDTYADSVKGRFIISRDNAKNTVYLQMNNLEPEDTAVYSCARMQDRYYISKDAKDYGYWGQGTQVTVSS
notes: as for B1
B5: sdAb H9 (VHH)
VHH: B4 VHH with P17S, G117E
notes: as for B1
B6: sdAb B1 (VHH)
VHH: B4 VHH with P17S, S62T, V63A, T121I
notes: as for B1
B7: sdAb E2 (VHH)
VHH: EVQLQASGGGLVQAGGSLRLTCAASGRTFGSYAMGWFRQAPGKEREFVAAISWSGGDTYADSVKGRFTISRDNAKNTVYLQMNSLAPEDTAVYSCAAVGARYYISKDAKDYGYWGQGTQVTVSS
notes: as for B1
B8: sdAb F1 (VHH)
VHH: B7 VHH with E1D, G26L, R27H, A60S, A86E, G99E, K106T
notes: as for B1
B9: sdAb H9-A1 (VHH)
VHH: EVQLQASGGGLVQPGGSLRLSCAASGSAVSIGFMAWYRQAPGKQRELVARISSSGLPDYADTVKGRFTISRDNTRKTVSLQMNSLNPDDTAVYYCNARLYDGSSAWGQGTQVTVSS
notes: as for B1
B10: sdAb A10 (VHH)
VHH: EVQLQASGGGLVRAGGTLRLTCDATTPTFGSYAMGWFRQAPGKEREFVSAISWSGGDTYADSVKGRFTISRDNTRNRVYLQMNDLEPDDTAIYTCARTTARYYISKDAKDYDYWGQGTQVTVSS
notes: as for B1
B11: sdAb H12 (VHH)
VHH: EVQLQASGGGLVLTGGSLRLSCAASGRNFSNYAMAWFRQAPGKEREFVGTISWYTNTNYANSVKGRFSISRDNAKNTVYLQMSSLKPEDTAVYYCAAAPAMYYNPYTRESEYGYWGQGTQVTVSS
notes: as for B1
B12: sdAb E9 (VHH)
VHH: B11 VHH with L13Q, T14A, N28D, N31D, N61D, M101R, T107K
notes: as for B1
B13: sdAb H9-B11 (VHH)
VHH: DVQLQASGGGLVQVGGSLRLSCAASGSTFRIGYMGWYRQAPGKPRELVARISSGGTTDYLDFVKDRFTISRDNAKNTVYLQMSSLKPEDTAVYYCNVVNYRANEYWGQGTQVTVSS
notes: as for B2
B14: sdAb H9-D7 (VHH)
VHH: B13 VHH with G35S, Y37H, P44S, F62S, A74T, S83N, K86E, N99D, T113A
notes: as for B1

Target: staphylococcal enterotoxin B (Staphylococcus aureus (strain not …, UniProt P01552))
Test: SPR
Details: both partners purified

Sequence of staphylococcal enterotoxin B (Staphylococcus aureus (P01552 28-266): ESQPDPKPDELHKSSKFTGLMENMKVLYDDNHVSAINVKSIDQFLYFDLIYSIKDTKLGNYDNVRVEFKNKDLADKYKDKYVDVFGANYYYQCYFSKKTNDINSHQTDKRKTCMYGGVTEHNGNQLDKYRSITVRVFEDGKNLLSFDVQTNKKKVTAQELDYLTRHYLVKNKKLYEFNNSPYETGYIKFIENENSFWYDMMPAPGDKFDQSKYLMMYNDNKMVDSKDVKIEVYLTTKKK

Binder | Kd [nM] | koff [s⁻¹] | kon [M⁻¹ s⁻¹]
B1 | 0.111 | 0.000277 | 2.49e+06
B2 | 1.56 | 0.000755 | 485000
B3 | 4.16 | 0.00506 | 1.22e+06
B4 | 0.232 | 0.000321 | 1.39e+06
B5 | 0.09 | 0.000318 | 3.53e+06
B6 | 0.2 | 0.00039 | 1.95e+06
B7 | 0.273 | 0.00351 | 1.28e+07
B8 | 0.65 | 0.00042 | 646000
B9 | 1.25 | 0.00227 | 1.8e+06
B10 | 0.158 | 0.000277 | 1.76e+06
B11 | 0.272 | 0.000607 | 2.23e+06
B12 | 0.533 | 0.000589 | 1.11e+06
B13 | 3.32 | 0.000512 | 154000
B14 | 1.1 | 0.000192 | 174000
